Consider three molecules from patent US20150023979A1 (VALDOSPAN, published 2015).

The target in assay [1] is T1, HPV39 E7 protein, recombinant (His-TEV-E7 fusion from E. coli) (Human Papilloma Virus type 39 (HPV39), UniProt P24837 1-109, CKII phosphorylation of the consensus site serine in the antigen preparation of Example 2).
T1 construct: mature; also called VE7_HPV39; not shown: N-terminal 6x Histidine tag and TEV cleavage site of the vector
T1 sequence: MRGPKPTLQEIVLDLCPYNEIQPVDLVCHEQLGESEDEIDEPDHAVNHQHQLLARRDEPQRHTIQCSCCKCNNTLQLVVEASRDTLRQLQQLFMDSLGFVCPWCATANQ
Kind of assay: ELISA and dot-blot, semiquantitative crossreactivity. On the technique in general: ELISA stands for enzyme-linked immunosorbent assay.

The target of assay [2] is T2, HPV45 E7 protein, recombinant (His-TEV-E7 fusion from E. coli) (Human Papilloma Virus type 45 (HPV45), UniProt P21736 1-106, CKII phosphorylation of the consensus site serines in the antigen preparation of Example 2; biotin on primary amines in the SPR assay).
T2 construct: mature; also called VE7_HPV45; not shown: N-terminal 6x Histidine tag and TEV cleavage site of the vector
T2 sequence: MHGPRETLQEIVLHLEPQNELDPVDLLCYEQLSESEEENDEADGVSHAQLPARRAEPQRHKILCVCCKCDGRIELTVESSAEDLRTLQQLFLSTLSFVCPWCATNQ
The assay is described as above.

The target in assay [3] is T3, HPV51 E7 protein, recombinant (His-TEV-E7 fusion from E. coli) (Human Papilloma Virus type 51 (HPV51), UniProt P26558 1-101, CKII phosphorylation of the consensus site serines in the antigen preparation of Example 2).
T3 construct: mature; also called VE7_HPV51; not shown: N-terminal 6x Histidine tag and TEV cleavage site of the vector
T3 sequence: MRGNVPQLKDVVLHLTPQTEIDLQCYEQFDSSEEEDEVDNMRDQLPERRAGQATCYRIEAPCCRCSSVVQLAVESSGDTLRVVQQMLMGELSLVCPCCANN
The description is as above.

Assay [4] concerns the target T4, HPV58 E7 protein, recombinant (His-TEV-E7 fusion from E. coli) (Human Papilloma Virus type 58 (HPV58), UniProt P26557 1-98, CKII phosphorylation of the consensus site serines in the antigen preparation of Example 2).
T4 construct: mature; also called VE7_HPV58; not shown: N-terminal 6x Histidine tag and TEV cleavage site of the vector
T4 sequence: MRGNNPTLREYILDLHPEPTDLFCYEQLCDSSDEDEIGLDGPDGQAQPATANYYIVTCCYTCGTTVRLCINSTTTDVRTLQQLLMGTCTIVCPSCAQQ
The assay can be described thus: ELISA and dot-blot, semiquantitative crossreactivity (++ strong positive).

In assay [5] the target is T5, HPV35 E7 protein, recombinant (His-TEV-E7 fusion from E. coli) (Human Papilloma Virus type 35 (HPV35), UniProt P27230 1-99, CKII phosphorylation of the consensus site serines in the antigen preparation of Example 2).
T5 construct: mature; also called VE7_HPV35; not shown: N-terminal 6x Histidine tag and TEV cleavage site of the vector
T5 sequence: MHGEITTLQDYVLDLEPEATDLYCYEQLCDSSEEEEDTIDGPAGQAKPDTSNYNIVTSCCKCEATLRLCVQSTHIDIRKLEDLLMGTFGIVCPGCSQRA
Described as above.

The target in assay [6] is T4, HPV58 E7 protein, recombinant …. The assay can be described thus: ELISA, HPV58E7 immobilised on polystyrene plates in 3-fold dilution steps, detected with ACAB452.
For assay [7], the target named is T1, HPV39 E7 protein, recombinant …. Kind of assay: ELISA and dot-blot, semiquantitative crossreactivity (++ strong positive).
Experimental: (§1) Using ELISA and dot-blot techniques semiquantitative crossreactivities of the isolated mAbs was analysed. For this various mAbs were tested against the accepted high risk species.
Assay [8] concerns the target T3, HPV51 E7 protein, recombinant …. The description is as above.
Experimental: as §1
Assay [9] deals with T6, HPV56 E7 protein, recombinant (His-TEV-E7 fusion from E. coli) (Human Papilloma Virus type 56 (HPV56), UniProt P36833 1-105, CKII phosphorylation of the consensus site serines in the antigen preparation of Example 2).
T6 construct: mature; also called VE7_HPV56; not shown: N-terminal 6x Histidine tag and TEV cleavage site of the vector
T6 sequence: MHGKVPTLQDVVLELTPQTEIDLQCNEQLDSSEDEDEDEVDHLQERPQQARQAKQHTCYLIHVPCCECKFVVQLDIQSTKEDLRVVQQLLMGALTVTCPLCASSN
The description is as above.

Assay [10] addresses T7, HPV52 E7 protein, recombinant (His-TEV-E7 fusion from E. coli) (Human Papilloma Virus type 52 (HPV52), UniProt P36831 1-99, CKII phosphorylation of the consensus site serines in the antigen preparation of Example 2).
T7 construct: mature; also called VE7_HPV52; not shown: N-terminal 6x Histidine tag and TEV cleavage site of the vector
T7 sequence: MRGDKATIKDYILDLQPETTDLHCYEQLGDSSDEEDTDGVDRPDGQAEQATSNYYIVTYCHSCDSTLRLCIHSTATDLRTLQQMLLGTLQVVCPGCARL
The assay can be described thus: ELISA, HPV52E7 immobilised on polystyrene plates in 3-fold dilution steps, detected with ACAB452.

In assay [11] the target is T8, HPV33 E7 protein, recombinant (His-TEV-E7 fusion from E. coli) (Human Papilloma Virus type 33 (HPV33), UniProt P06429 1-97, CKII phosphorylation of the consensus site serines in the antigen preparation of Example 2; biotin on primary amines in the SPR assay).
T8 construct: mature; also called VE7_HPV33; not shown: N-terminal 6x Histidine tag and TEV cleavage site of the vector
T8 sequence: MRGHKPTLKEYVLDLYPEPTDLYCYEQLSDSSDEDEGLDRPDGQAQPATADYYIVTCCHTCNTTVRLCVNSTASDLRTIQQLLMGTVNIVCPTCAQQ
Kind of assay: ELISA and dot-blot, semiquantitative crossreactivity (+ weak interaction).

B1: ACAB164 (antibody, V domains shown)
VH: EVQLQQSGLALVQPGASVKISCRTSGYTFTEYTLHWVKQSHGKSLEWIGGINPNNGSPKYNQKFKGKATLTVDKSSSTAYMELRSLTSEDSAVYYCARLDINSFFDYWGQGTTLTVSS
VL: DVVMTQSPLSLPVSLGDQASISCRSSQSLVHSNGNTYLQWYLQKPGQSPKLLIYKLSNRFSGVPDRFSGSGSGTDFTLKISRVEAEDLGVYSCSQTTHVPPTFGGGTKLEIKR
notes: the printed entries run on into the first residues of the constant domains; also called HPV16E7 IgG2a antibody ACAB164
Turning to B1, the binding result in assay [1] was “no binding”; in assay [2] it was “no binding”; in assay [3], “no binding”; in assay [4], “binds”; in [5], “binds”.

B2: ACAB452 (antibody, IgG1, V domains shown)
VH: DVQLQESGPGLVKPSQSLSLTCTVTGYSITSDYAWNWIRQFPGNKLEWVGYITYSGSTNYNPSLKSRISITRDTSKNQFFLQFNSVTSEDTATYFCARSWFAYWGQGTLVTVSS
VL: DIVMTQTPLSLPVSLGDQASISCRSSQSLVHSNGNTYLHWFLQKPGQSPKLLIYKVSNRFSGVPDRFSGSGSGTDFTLKISRVEAEDLGVYFCLQSAHVPLTFGAGTKLELTR
notes: also called HPV45E7 IgG1 antibody ACAB452
As to B2, the binding result in assay [6] is on record as “no binding (tested: 800 nM immobilised antigen (per legend))”; in assay [7], “binds”; in assay [8] it was “binds”; in assay [9], “binds”; in [10], “no binding (tested: 800 nM immobilised antigen (per legend))”; in assay [11], “binds”.

B3: ACAB161 (antibody, IgG2a, V domains shown)
VH: EVMLVESGGGLVKPGGSLKLSCAASGFTFSRYTMSWVRQTPEKRLEWVATISSGGTNTNYTDSVKGRFTISRDNAKNNLYLQMSSLRSEDTALYYCTRGVRRGDGYAMDYWGQGTSVTVSS
VL: DIVLTQAAPSVPVTPGESVSISCRSTKSLLHSNGNTYLYWFLQRPGQSPQALIYRTSNLASGVPDRFSGSGSGTAFTLRISRVEAEDVGVYYCMQHLEYPLTFGAGTKLELKR
notes: the printed entries run on into the first residues of the constant domains; also called HPV16E7 IgG2a antibody ACAB161
Consider B3, for which the binding result in [1], in assay [2] and in [3] was “no binding” throughout.
